Measurements as given in patent publication US20190092832A1 (published 2019).

Target: T1, interferon-alpha/beta receptor alpha chain (IFNAR1) (UniProt P17181 28-436, limits assumed)
T1 sequence (looked up): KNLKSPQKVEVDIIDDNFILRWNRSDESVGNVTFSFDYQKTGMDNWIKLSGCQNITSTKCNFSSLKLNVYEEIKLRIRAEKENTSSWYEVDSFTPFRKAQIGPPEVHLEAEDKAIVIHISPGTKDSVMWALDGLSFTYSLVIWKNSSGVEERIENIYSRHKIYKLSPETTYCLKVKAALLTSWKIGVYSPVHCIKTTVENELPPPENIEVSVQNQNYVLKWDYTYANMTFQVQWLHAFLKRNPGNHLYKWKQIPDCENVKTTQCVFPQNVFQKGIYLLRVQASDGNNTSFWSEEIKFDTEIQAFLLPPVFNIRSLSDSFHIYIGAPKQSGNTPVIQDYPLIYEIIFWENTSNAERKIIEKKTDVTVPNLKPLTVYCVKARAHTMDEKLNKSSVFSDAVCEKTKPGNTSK
Assay: intrinsic fluorescence quenching of IFNAR1 titrated with peptide, double-log plot, 298 K
Method: […] Protein intrinsic fluorescence experiments were carried out at constant IFNAR1 concentration titrated with different concentrations of IFNβ analog peptide to reach a maximum molar ratio of the IFNβ analog peptide-IFNAR1, and the complex maximum molar ratio of the IFNβ analog peptide-IFNAR1 was 10.
In these experiments, 1.0 ml solution with a fixed concentration of the […] was precisely added into the quartz cell with a 1 cm path length and was manually titrated by successive additions of the IFNβ analog peptide at 5 min time intervals. The fluorescence emission spectra were then measured, and the maximum fluorescence intensity at a wavelength of about 340 nm was used to calculate the binding constant parameters.
Fluorescence quenching data from the interaction of the IFNβ analog peptide and IFNAR1 were analyzed to obtain various binding parameters. The binding constant (Kₐ) and the number of binding (n) were calculated according to the Eq. 1, where F₀ is the fluorescence emission intensities of IFNAR1 in the absence of the IFNβ analog peptide, F is the fluorescence emission intensities of IFNAR1 in the presence of the IFNβ analog peptide, [P] is the IFNβ analog peptide concentration, Kₐ is the binding constant, and n is the apparent molar ratio of [IFNβ analog peptide]/[IFNAR1] complex.

- Ka: 3.67e+07 M⁻¹
B1: IFNβ analog peptide with SEQ ID No. 2 (peptide)
peptide: MLQNGRDVRKRGFSDTGLRKLGRVNLL
notes: also called MSPEP27
